Assay [1] deals with T1, human OX40 expressed on cells (human, UniProt P43489 29-277).
T1 construct: also called cell-surface human OX40; Jurkat-NF-κB-huOX40
T1 sequence: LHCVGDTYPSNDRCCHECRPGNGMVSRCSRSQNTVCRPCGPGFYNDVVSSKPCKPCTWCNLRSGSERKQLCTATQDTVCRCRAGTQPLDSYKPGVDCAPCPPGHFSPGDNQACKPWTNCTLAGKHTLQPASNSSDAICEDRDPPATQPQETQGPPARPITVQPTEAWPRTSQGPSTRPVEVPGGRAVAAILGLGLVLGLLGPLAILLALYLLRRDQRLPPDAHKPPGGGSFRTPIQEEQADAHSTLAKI
As to the kind of experiment: flow cytometry on Jurkat NF-κB reporter cells expressing human OX40. How it is done:
A Jurkat NF-κB reporter cell line expressing human OX40 protein was cultured in DMEM containing 10% FBS and penicillin/streptomycin (pen/strep). For the binding assay, each cell line was resuspended at 5 million cells per mL. 50 μL (250,000 cells)/well were transferred to each well of a 500 μL polypropylene 96-well plate (Nunc). A 2× stock of test anti-OX40 antibody or isotype control mAb was prepared in a separate dilution plate at 666, 333, 111, 37.03, 12.34, 4.11, 0.457, 0.152, 0.0508, 0.0169, 0.00564 nM in culture media. Each antibody (50 μL/well) was transferred into respective wells of the assay plate. Cells were incubated with the test anti-OX40 antibody or isotype control antibodies for 30 minutes at 4° C. and washed twice with 250 μL/well of PBS by centrifuging at 800 rpm for 3 minutes. Bound antibody was detected with Cy5-Donkey anti-human IgG (H+L) (Jackson ImmunoResearch) diluted to 2 μg/mL (50 μL/well) in PBS for 30 minutes at 4° C. Cells were washed once with 250 μL/well of PBS, resuspended in PBS containing 1% Formaldehyde and analyzed on a dual laser FACSCalibur (Becton Dickinson).
A general note: In flow cytometry, cells or beads pass a laser one at a time.

Assay [2] concerns the target T2, rhesus OX40 expressed on 293 NF-κB reporter cells (rhesus macaque (Macaca mulatta), UniProt P43489 29-277 (human entry)).
T2 construct: also called cell-surface rhesus monkey OX40
T2 chain: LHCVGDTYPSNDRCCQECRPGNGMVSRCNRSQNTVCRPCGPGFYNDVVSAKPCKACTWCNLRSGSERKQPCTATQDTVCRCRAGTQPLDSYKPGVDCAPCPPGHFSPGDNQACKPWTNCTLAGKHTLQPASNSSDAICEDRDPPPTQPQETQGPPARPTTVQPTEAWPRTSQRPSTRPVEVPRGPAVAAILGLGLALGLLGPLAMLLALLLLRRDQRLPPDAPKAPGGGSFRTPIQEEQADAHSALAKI
Description: flow cytometry on NF-κB reporter cells expressing rhesus OX40. As for the experimental part: Rhesus macaque (Macaca mulatta) OX40 is identical to cynomolgus monkey (Macaca fascicularis) OX40 (SEQ ID NO:2) at the amino acid level. […] For the binding assay, cells were resuspended at 5 million cells per mL. 50 μL (250,000 cells)/well were transferred to each well of a 500 μL polypropylene 96-well plate (Nunc). A 2× stock of test anti-OX40 antibody or isotype control monoclonal antibody was prepared in a separate dilution plate at 666, 333, 111, 37.03, 12.34, 4.11, 0.457, 0.152, 0.0508, 0.0169, 0.00564 nM in culture media. The monoclonal antibodies (50 μL/well) were transferred into respective wells of the assay plate. Cells were incubated with the primary antibodies for 30 minutes at 4° C. and washed twice with 250 μL/well of PBS by centrifuging at 800 rpm for 3 minutes. Bound antibody was detected with Cy5-Donkey anti-human IgG (H+L) (Jackson ImmunoResearch) diluted to 2 μg/mL (50 μL/well) in PBS for 30 minutes at 4° C. Cells were washed once with 250 μL/well of PBS, resuspended in PBS containing 1% Formaldehyde and analyzed on a dual laser FACSCalibur (Becton Dickinson).

B1: Hu3738 (antibody, V domains shown)
VH: EVQLVESGGGLVQPGGSLRLSCAASGFTFSRYGMSWVRQAPGKGLELVATINSNGGRTYYPDSVKGRFTISRDNAKNSLYLQMNSLRAEDTAVYYCAREGITTAYAMDYWGQGTTVTVSS
VL: DIVMTQSPDSLAVSLGERATINCKASQSVDYDGDSYMHWYQQKPGQPPKLLIYAASILESGVPDRFSGSGSGTDFTLTISSLQAEDVAVYYCQQSNEDPRTFGGGTKVEIKR
notes: Humanized antibody; also called exemplary anti-OX40 antibody Hu3738; Hu3738 VH.1b / Hu3738 VL.1
One may read the EC50 as the midpoint of the concentration-response curve. For the molecule B1, the EC50 in assay [1] is 0.5 nM; in assay [2], 2.1 nM.
